Laboratory results published in patent US20050064507A1, “Determining kinase specificity” (priority 2003, published 2005).

Assays:
PKC-alpha = target: T1, PKC-alpha (Homo sapiens, UniProt P17252); assay: In vitro kinase assay: peptide phosphorylation by PKC-alpha; format: biochemical; conditions: for PKC alpha phosphorylation: normalized to best substrate
T1 construct: purchased Calbiochem
Experimental: Catalytically active preparations of the kinases of interest were either purchased or prepared. Purchased and tested active kinase preparations including the following: PKC-alpha, PKC-delta, PKC-epsilon, PKC-zeta, PKC-mu, PKA, PKG from Calbiochem, ROK alpha/ROCK-II, active from Upstate Biotechnology, and AKT1 from Panvera.
(§1) The conditions of the kinase assay and the amount of active kinase used varied with the kinase and with the accuracy needed. For a typical experiment, 5-20 ng of kinase was used per well and each peptide pool was assayed in duplicate wells. Note that the absolute amount of kinase used was not usually a critical parameter, because the desired information related to specificity of the kinase not its absolute activity, and robustness of the assay depends on comparisons of the same amount of kinase on different peptides. The combination of kinase concentration and assay duration was modified to assure that the stoichiometry of peptide phosphorylation never exceeded 5%. The choice of kinase buffer depended on the kinase being analyzed. For studies of PKC, 100 mM HEPES, 0.05% Triton-X100, 1 mM CaCl2, 20 mM MgCl2, 0.2 mg/ml phosphatidyl serine (Avanti Polar Lipids), PMA 100 ng/ml was typically used. The lipid stock was prepared by transferring 3 mg phosphatidyl serine into iced mixture of 450 μl water plus 50 μl of 10% Triton-X100, sonicating 10 times on ice for 1 sec each.
(§2) The kinase reaction mixture was assembled by sequential addition to a tube held on ice of: 5 μl peptide (100 μM for final concentration of 10 μM), 15 μl of kinase (typically 5 ng/well, in appropriate kinase buffer), 30 μl of ATP (1 uCi/well of ^32P-gamma ATP in a stock of 167 μM cold ATP in the kinase buffer; for final concentration for 100 μM ATP). The mixture was rapidly warmed to desired reaction temperature (30° C. for PKC) and incubated for the desired duration (usually 10 minutes). The kinase assay was terminated by transfer to 4° C. water batch, and rapid addition of an equal volume (50 μl) of stop solution [0.1M ATP+0.1M EDTA in water, pH 8].
The peptides were then captured from the reaction mixture by transfer to a Reacti-Bind Streptavidin High Binding Capacity Coated Plates (HBC) (Pierce Biotechnology) as follows. The HBC plates were pre-rinsed three times with PBS/Tween PBS/Tween20 0.05% (PBS/Tween). Part of all of the reaction mixture was then transferred wells of a HBC plate pre-filled with 90 μl of phosphate-buffered saline (PBS); typically each aliquots of each phosphorylation reaction were transferred to duplicate HBC plates to assure accuracy by additional replication
For kinase assays done at the standard peptide concentration of 10 μM, the peptide concentration in the reaction mixture becomes 5 μM after addition of the stop solution; consequently 10 μl of the reaction (50 pMoles of peptide) was transferred to the HBC plate. More generally, the amount of reaction mixture transferred was estimated to be about 50 pMoles of peptide. […] The HBC plates were incubated for 0.5 to 1.5 hr at room temperature for complete binding of biotinylated peptides to plate-bound streptavidin. The HBC plates were then washed extensively with PBS/Tween. Five washes were done routinely and additional wash steps were added if the wash solution removed from the plate had measurable radioactivity as detected using a Geiger counter. This step is essential to obtaining a good the signal to noise ratio because the fraction of radioactivity incorporated in the peptides was a tiny fraction of the total in the reaction mixture. The wells were air-dried. A volume of 40-50 μl of microScint-20 (Packard Instruments) was added to each well. The plates were covered with stick-on film sheet. Radioactive emissions were measured in a TopCount NXT Microplate Scintillation and Luminescence Counter (Packard Instruments). Typically samples were counted for 5 minutes (or more) to improve the signal to noise ratio when counts were low. […]

PKC-theta = target: T2, PKC-theta (Homo sapiens, UniProt Q04759); assay: In vitro kinase assay: peptide phosphorylation by PKC-theta; format: biochemical; conditions: for PKC theta phosphorylation: normalized to best substrate
T2 construct: His-tag; made in house; host or cells: baculovirus-infected Sf9 cells
T2 sequence (Q04759 whole entry): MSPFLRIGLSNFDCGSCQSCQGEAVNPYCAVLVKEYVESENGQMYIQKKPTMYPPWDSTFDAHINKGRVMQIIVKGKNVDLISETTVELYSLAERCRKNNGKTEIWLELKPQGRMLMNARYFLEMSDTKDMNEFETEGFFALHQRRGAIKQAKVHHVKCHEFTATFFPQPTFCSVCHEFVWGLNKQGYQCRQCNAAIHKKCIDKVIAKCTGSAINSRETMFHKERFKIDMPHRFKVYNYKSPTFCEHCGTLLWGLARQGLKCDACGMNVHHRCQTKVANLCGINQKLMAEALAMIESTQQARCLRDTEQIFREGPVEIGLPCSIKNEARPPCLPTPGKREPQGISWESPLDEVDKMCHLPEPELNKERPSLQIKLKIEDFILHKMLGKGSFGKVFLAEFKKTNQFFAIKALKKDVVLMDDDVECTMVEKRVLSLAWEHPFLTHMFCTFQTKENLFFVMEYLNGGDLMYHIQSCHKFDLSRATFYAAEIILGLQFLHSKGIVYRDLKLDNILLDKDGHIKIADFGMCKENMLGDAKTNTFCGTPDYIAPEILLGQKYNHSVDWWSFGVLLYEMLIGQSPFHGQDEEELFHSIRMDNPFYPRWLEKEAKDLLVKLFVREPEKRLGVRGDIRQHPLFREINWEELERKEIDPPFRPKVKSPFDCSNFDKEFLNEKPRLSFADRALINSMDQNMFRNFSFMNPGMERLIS
Text: A second strategy for validation of the PSSM derived from the methods described herein is to identify sequences represented in the human proteome that have low percentiles derived from the PSSM, to synthesize peptides that have those sequences, and test the efficiency of phosphorylation of those peptides by the kinase of interest. […] The results are shown for individual peptides (FIG. 11, panel A) or for groups of peptides aggregated by percentile prediction (FIG. 11, panel B). As with the testing described above with prospectively chosen peptides, the percentile scores are highly predictive of phosphorylation by the relevant kinase.
An example of the purification procedure used for production of active kinase is as follows. A preparation of PKC-theta was prepared using a Gateway expression construct containing PKC-theta that was expressed in baculovirus, which were used to infect Sf9 cells. The cell pellet from a liter of baculovirus-infected Sf9 cells was resuspended in 20 volumes (60 ml) of extraction buffer (20 mM Na phosphate buffer pH 7.5, 500 mM NaCl, 5 mM pyrophosphate, 10% glycerol, 10 mM imidazole, 1 mM PMSF), sonicated twice for one minute (1 cm tip at 60% power and 50% duty cycle) and cell disruption was verified microscopically. The sample was adjusted to five mM MgCl2 and treated with one U benzonase/ml for an additional 20 minute on ice. The sample was clarified by centrifugation in a JA-20 rotor at 15K for 30 min at 4° C., filtered through a […] filter and applied at 0.5 ml/min to a one ml chelating sepharose column previously charged with nickel and equilibrated with extraction buffer. The column was washed with extraction buffer at one ml/min to baseline and eluted in a 20 ml gradient (20-500 mM imidazole in extraction buffer) into one ml fractions that were analyzed by SDS-PAGE. Fractions with the highest concentration of protein were pooled, were dialyzed twice against one liter of 20 mM Na PO4 pH 7.5, 50 mM NaCl buffer. The kinase pool was dialyzed twice against 20 mM HEPES pH 7.4, 100 mM NaCl, 2 mM EDTA, 5 mM DTT, 0.05% Triton-X-100. After dialysis, the sample was adjusted to 50% glycerol and quick-frozen in a dry ice/ethanol bath.
as §1
as §2, with “8]. […]” for “8].”

| Substance | PKC alpha phosphorylation (PKC-alpha) | PKC theta phosphorylation (PKC-theta) | phosphorylation by PKC alpha (PKC-alpha; peptide concentration 1 uM) | phosphorylation by PKC alpha (PKC-alpha; peptide concentration 10 uM) | phosphorylation by PKC theta (PKC-theta; peptide concentration 1 uM) | phosphorylation by PKC theta (PKC-theta; peptide concentration 10 uM) | Peptide phosphorylation by PKC-theta (PKC-theta; Table 8) |
| --- | --- | --- | --- | --- | --- | --- | --- |
| 103 (LLKKRDSFRTPRDSKLE) [compound 103] | 32% | 24% | – | – | – | – | – |
| 161 (KYKAFIRIPIPTRRHTFRRQ) [compound 161] | – | – | 22 | 8 | 19 | 23 | – |
| 164 (TEGKMARVAWKGKRRSKARK) [compound 164] | – | – | 6 | 6 | 24 | 20 | – |
| 120 (AKRRRLSSLRASTSK) [compound 120] | – | – | 55 | 58 | 51 | 51 | – |
| 80 (KKKKKRFSFKKSFKL) [compound 80] | 65% | 63% | – | – | – | – | – |
| 141 (VTDSQKRREILSRRPSYRKI) [compound 141] | – | – | 24 | 25 | 29 | 28 | – |
| 108 (KATTKKRTLRKNDRK) [compound 108] | 19% | 32% | – | – | – | – | – |
| 101 (GAPPRRSSIRNAH) [compound 101] | 32% | 29% | – | – | – | – | – |
| 121 (LRRRSLRRSNSISKSPGP) [compound 121] | – | – | 33 | 29 | 51 | 57 | 57 |
| 142 (ERHVAQKKSRLRRRASQLKI) [compound 142] | – | – | 16 | 21 | 28 | 37 | – |
| 145 (ISDFGLAKKLAVGRHSFSRR) [compound 145] | – | – | 21 | 30 | 27 | 25 | – |
| 107 (QKRHARVTVKYDRRE) [compound 107] | 18% | 40% | – | – | – | – | – |
| 125 (PLKEKKRERKTSSKSSVRKR) [compound 125] | – | – | 34 | 31 | 39 | 100 | – |
| 123 (KKRFSFKKSFKLSGFSFKKN) [compound 123] | – | – | 58 | 73 | 47 | 32 | – |
| 136 (RARRDSLKKIEIW) [compound 136] | – | – | 26 | 28 | 42 | 28 | – |
| 158 (VQMTWSYPDEKNKRASVRRR) [compound 158] | – | – | 16 | 11 | 19 | 23 | – |

| Substance | PKC alpha phosphorylation (PKC-alpha) | PKC theta phosphorylation (PKC-theta) | phosphorylation by PKC alpha (PKC-alpha; peptide concentration 1 uM) | phosphorylation by PKC alpha (PKC-alpha; peptide concentration 10 uM) | phosphorylation by PKC theta (PKC-theta; peptide concentration 1 uM) | phosphorylation by PKC theta (PKC-theta; peptide concentration 10 uM) | Peptide phosphorylation by PKC-theta (PKC-theta; Table 8) |
| --- | --- | --- | --- | --- | --- | --- | --- |
| 100 (WKGKRRSKARKKRK) [compound 100] | 14% | 56% | – | – | – | – | – |
| 96 (RGFLRSASLGRRASFHLE) [compound 96] | 40% | 21% | – | – | – | – | – |
| 157 (PSPSNETPKKKKKRFSFKKS) [compound 157] | – | – | 10 | 11 | 20 | 23 | – |
| 131 (WKGKRRSKARKKRK) [compound 131] | – | – | 49 | 22 | 53 | 35 | – |
| 155 (RWDKRRWRKIPKRPGSVHRT) [compound 155] | – | – | 10 | 12 | 23 | 26 | – |
| 84 (QKKSRLRRRASQLKI) [compound 84] | 39% | 87% | – | – | – | – | – |
| 113 (GENVLKKSMKSRVKG) [compound 113] | 16% | 10% | – | – | – | – | – |
| 111 (KKKRFSFKKSFKLSGFSFKK) [compound 111] | 11% | 18% | – | – | – | – | – |
| 126 (KAIKAIEGGQKFARKSTRRS) [compound 126] | – | – | 36 | 34 | 46 | 45 | – |
| 105 (ALRRPSLRREADD) [compound 105] | 26% | 21% | – | – | – | – | – |
| 163 (PPRTPGWHQLQPRRVSFRGE) [compound 163] | – | – | 30 | 10 | 14 | 11 | – |
| 156 (SAQITIPKDGQKRKKSLRKK) [compound 156] | – | – | 9 | 11 | 18 | 23 | – |
| 114 (KKKKRASFKRKSSKKG) [compound 114] | – | – | 100 | 100 | 100 | 86 | – |
| 77 (KKKKRASFKRKSSKKG) [compound 77] | 100% | 74% | – | – | – | – | – |
| 160 (PFEVVWYKDKRQLRSSKKYK) [compound 160] | – | – | 9 | 7 | 19 | 25 | – |
| 90 (AQIVKRASLKRGKQ) [compound 90] | 40% | 38% | – | – | – | – | – |
